Assay results reported in patent publication US20110263454A1, “Methods of Identifying Functional Characteristics of Promoters, Transcription Modifying Proteins and Transcription Modulating Agents” (Salk Institute for Biological Studies, priority 2008, published 2011).

What was measured:
mPgc1b promoter = experiment: NHR-promoter luciferase screen, mPgc1b promoter; format: cell-based, mouse; conditions: for Luc. act., normalized to lacZ / Normalized Luc. act., normalized to control: PGC1b promoter reporter, co-transfected HR, without or with its ligand; for Normalized Luc. act., normalized to control: relative to control; for luciferase activity normalized to lacZ activity and to a control, mPgc1b: mPgc1b promoter-luciferase, CV-1 cells, NHR +/- ligand, control = 1.00
Experimental: (§1) Briefly, there were co-expressed 50 ng of each NHR/NHR homodimer or NHR/RXR heterodimer with 100 ng promoter/luciferase construct and 50 ng of LacZ (as a control for transfection efficiency) in CV-1 cells using Fugene HD (Roche) as a transfection reagent (alternatively or additionally, a CMV-YFP construct can be used as a transfection control). Each of the nuclear hormone receptors that were used in these experiments was cloned into a pcDNA3.1 vector and comprised a C-terminally linked V5H6 tag.
(§2) The promoters that facilitate transcription of the indicated gene products that were tested using the protocols described herein are listed in the first row of the table. The nuclear hormone receptors and, where applicable, ligands that were assayed for their transcriptional effects on the promoters are listed in the first column of the table. The data represent the luciferase activity of each sample normalized to both the lacZ activity of that sample and to a control, e.g., no NHR or ligand, as customary in the art. As described previously, these normalizations allow the transcriptional activity of each reporter cell to be compared to other samples.
(§3) Tables 7-40 show the transcriptional effects of the hormone receptors, and, where applicable, ligands (orphan receptors are screened without ligand), on each individual promoter. […] The control data of each table are shown in their last rows.

hCYP3A4 promoter = experiment: NHR-promoter luciferase screen, hCYP3A4 promoter; format: cell-based, human; conditions: for Luc. act., normalized to lacZ / Normalized Luc. act., normalized to control: CYP3A4 promoter, HR/ligand component; for hCYP3A4 promoter reporter activity: transcription factor +/- ligand, control = 1.00
Experimental: as §1, §2, §3

mAgrp promoter = experiment: NHR-promoter luciferase screen, mAgrp promoter; format: cell-based, mouse; conditions: for Results of assays of transcription factor (+/- ligand) with mAgrp: Table 6d, luciferase activity relative to control (control = 1.00); for Luc. act., normalized to lacZ / Normalized Luc. act., normalized to control: mAgrp promoter, HR component with or without ligand; for Normalized Luc. act., normalized to control: relative to control
Experimental: (§4) The use, feasibility, and reproducibility of the functional NHR-promoter screen in a 48-well format have been tested validated. Briefly, there were co-expressed 50 ng of each NHR/NHR homodimer or NHR/RXR heterodimer with 100 ng promoter/luciferase construct and 50 ng of LacZ (as a control for transfection efficiency) in CV-1 cells using Fugene HD (Roche) as a transfection reagent (alternatively or additionally, a CMV-YFP construct can be used as a transfection control). Each of the nuclear hormone receptors that were used in these experiments was cloned into a pcDNA3.1 vector and comprised a C-terminally linked V5H6 tag. Twenty-four hours after transfection, appropriate ligands were added, where applicable, (see Table 5 for various ligands and concentrations and after 48 hrs, samples were assayed for luciferase and LacZ activity. To measure for luciferase activity 15 ul of sample was added to 30 ul of luciferase buffer (20 mM tricine, 1.07 mM MgCarbonate, 2.67 mM MgSulfate, 0.1 mM Naz-EDTA, 5 mM DTT, 5 mM ATP, 0.15 mg/ml CoA, 0.5 mM Luciferin), mixed briefly, and run in a Perkin Elmer Victor 5 luminometer. Thus, the functional NHR-promoter screen was used to observe the transcriptional activity of 29 promoters from various physiological pathways including inflammation, lipid and sugar metabolism, cholesterol transport, xenobiotic metabolism, and circadian rhythm.
as §2, §3

mGhrelin promoter = experiment: NHR-promoter luciferase screen, mGhrelin promoter; format: cell-based, mouse; conditions: for Luc. act., normalized to lacZ / Normalized Luc. act., normalized to control: Table 8, mGhrelin; for Results of assays of transcription factor (+/- ligand) with mGhrelin: Table 6d, luciferase activity relative to control (control = 1.00)
Experimental: as §4, §2, §3

mABCA1 promoter = experiment: NHR-promoter luciferase screen, mABCA1 promoter; format: cell-based, mouse; conditions: for Luc. act., normalized to lacZ / Normalized Luc. act., normalized to control: ABCA1 promoter, hormone receptor with or without its ligand; for Normalized Luc. act., normalized to control: relative to control; for mABCA1 promoter reporter activity: transcription factor +/- ligand, control = 1.00
Experimental: as §4, §2, §3

| Molecule | Luc. act., normalized to lacZ (mPgc1b promoter) | Normalized Luc. act., normalized to control (mPgc1b promoter) | luciferase activity normalized to lacZ activity and to a control, mPgc1b (mPgc1b promoter) | Luc. act., normalized to lacZ (hCYP3A4 promoter) | Normalized Luc. act., normalized to control (hCYP3A4 promoter) | hCYP3A4 promoter reporter activity (hCYP3A4 promoter) | Results of assays of transcription factor (+/- ligand) with mAgrp (mAgrp promoter) | Luc. act., normalized to lacZ (mAgrp promoter) | Normalized Luc. act., normalized to control (mAgrp promoter) | Luc. act., normalized to lacZ (mGhrelin promoter) | Normalized Luc. act., normalized to control (mGhrelin promoter) | Results of assays of transcription factor (+/- ligand) with mGhrelin (mGhrelin promoter) | Luc. act., normalized to lacZ (mABCA1 promoter) | Normalized Luc. act., normalized to control (mABCA1 promoter) | mABCA1 promoter reporter activity (mABCA1 promoter) |
| --- | --- | --- | --- | --- | --- | --- | --- | --- | --- | --- | --- | --- | --- | --- | --- |
| LXRb: Liver X Receptor β (NR1H2), cDNA driver (protein, UniProt P55055 1-460, looked up) Oxysterols receptor LXR-beta: MSSPTTSSLDTPLPGNGPPQPGAPSSSPTVKEEGPEPWPGGPDPDVPGTDEASSACSTDWVIPDPEEEPERKRKKGPAPKMLGHELCRVCGDKASGFHYNVLSCEGCKGFFRRSVVRGGARRYACRGGGTCQMDAFMRRKCQQCRLRKCKEAGMREQCVLSEEQIRKKKIRKQQQESQSQSQSPVGPQGSSSSASGPGASPGGSEAGSQGSGEGEGVQLTAAQELMIQQLVAAQLQCNKRSFSDQPKVTPWPLGADPQSRDARQQRFAHFTELAIISVQEIVDFAKQVPGFLQLGREDQIALLKASTIEIMLLETARRYNHETECITFLKDFTYSKDDFHRAGLQVEFINPIFEFSRAMRRLGLDDAEYALLIAINIFSADRPNVQEPGRVEALQQPYVEALLSYTRIKRPQDQLRFPRMLMKLVSLRTLSSVHSEQVFALRLQDKKLPPLLSEIWDVHE | 4.69 | 0.4 | 0.40 | 4.8 | 1.1 | 1.08 | 0.78 | 31.0 | 0.8 | 46.7 | 0.9 | 0.89 | 46.3 | 8.3 | 8.25 |
| RORg: RAR-related Orphan Receptor γ (NR1F3), cDNA driver (protein, UniProt P51449 1-518, looked up) Nuclear receptor ROR-gamma: MDRAPQRQHRASRELLAAKKTHTSQIEVIPCKICGDKSSGIHYGVITCEGCKGFFRRSQRCNAAYSCTRQQNCPIDRTSRNRCQHCRLQKCLALGMSRDAVKFGRMSKKQRDSLHAEVQKQLQQRQQQQQEPVVKTPPAGAQGADTLTYTLGLPDGQLPLGSSPDLPEASACPPGLLKASGSGPSYSNNLAKAGLNGASCHLEYSPERGKAEGRESFYSTGSQLTPDRCGLRFEEHRHPGLGELGQGPDSYGSPSFRSTPEAPYASLTEIEHLVQSVCKSYRETCQLRLEDLLRQRSNIFSREEVTGYQRKSMWEMWERCAHHLTEAIQYVVEFAKRLSGFMELCQNDQIVLLKAGAMEVVLVRMCRAYNADNRTVFFEGKYGGMELFRALGCSELISSIFDFSHSLSALHFSEDEIALYTALVLINAHRPGLQEKRKVEQLQYNLELAFHHHLCKTHRQSILAKLPPKGKLRSLCSQHVERLQIFQHLHPIVVQAAFPPLYKELFSTETESPVGLSK | 15.9 | 1.3 | 1.34 | 3.4 | 0.8 | 0.76 | 2.51 | 99.6 | 2.5 | 109.2 | 2.1 | 2.09 | 29.4 | 5.2 | 5.23 |
| RORa: RAR-related Orphan Receptor α (NR1F1), cDNA driver (protein, UniProt P35398 1-523, looked up) Nuclear receptor ROR-alpha: MESAPAAPDPAASEPGSSGADAAAGSRETPLNQESARKSEPPAPVRRQSYSSTSRGISVTKKTHTSQIEIIPCKICGDKSSGIHYGVITCEGCKGFFRRSQQSNATYSCPRQKNCLIDRTSRNRCQHCRLQKCLAVGMSRDAVKFGRMSKKQRDSLYAEVQKHRMQQQQRDHQQQPGEAEPLTPTYNISANGLTELHDDLSNYIDGHTPEGSKADSAVSSFYLDIQPSPDQSGLDINGIKPEPICDYTPASGFFPYCSFTNGETSPTVSMAELEHLAQNISKSHLETCQYLREELQQITWQTFLQEEIENYQNKQREVMWQLCAIKITEAIQYVVEFAKRIDGFMELCQNDQIVLLKAGSLEVVFIRMCRAFDSQNNTVYFDGKYASPDVFKSLGCEDFISFVFEFGKSLCSMHLTEDEIALFSAFVLMSADRSWLQEKVKIEKLQQKIQLALQHVLQKNHREDGILTKLICKVSTLRALCGRHTEKLMAFKAIYPDIVRLHFPPLYKELFTSEFEPAMQIDG | 10.8 | 0.9 | 0.91 | 1.6 | 0.4 | 0.36 | 1.65 | 65.6 | 1.7 | 46.6 | 0.9 | 0.89 | 33.0 | 5.9 | 5.87 |
| HNF4a: Hepatocyte Nuclear Factor α (NR2A1), cDNA driver (protein, UniProt P41235 1-474, looked up) Hepatocyte nuclear factor …: MRLSKTLVDMDMADYSAALDPAYTTLEFENVQVLTMGNDTSPSEGTNLNAPNSLGVSALCAICGDRATGKHYGASSCDGCKGFFRRSVRKNHMYSCRFSRQCVVDKDKRNQCRYCRLKKCFRAGMKKEAVQNERDRISTRRSSYEDSSLPSINALLQAEVLSRQITSPVSGINGDIRAKKIASIADVCESMKEQLLVLVEWAKYIPAFCELPLDDQVALLRAHAGEHLLLGATKRSMVFKDVLLLGNDYIVPRHCPELAEMSRVSIRILDELVLPFQELQIDDNEYAYLKAIIFFDPDAKGLSDPGKIKRLRSQVQVSLEDYINDRQYDSRGRFGELLLLLPTLQSITWQMIEQIQFIKLFGMAKIDNLLQEMLLGGSPSDAPHAHHPLHPHLMQEHMGTNVIVANTMPTHLSNGQMCEWPRPRGQAATPETPQPSPPGGSGSEPYKLLPGAVATIVKPLSAIPQPTITKQEVI | 6.4 | 0.5 | 0.54 | 1.7 | 0.4 | 0.37 | 0.91 | 36.1 | 0.9 | 42.6 | 0.8 | 0.82 | 10.7 | 1.9 | 1.90 |
| RVRa: Rev-Erb α (NR1D1), cDNA driver (protein, UniProt P20393 1-614, looked up) Nuclear receptor subfamily 1 …: MTTLDSNNNTGGVITYIGSSGSSPSRTSPESLYSDNSNGSFQSLTQGCPTYFPPSPTGSLTQDPARSFGSIPPSLSDDGSPSSSSSSSSSSSSFYNGSPPGSLQVAMEDSSRVSPSKSTSNITKLNGMVLLCKVCGDVASGFHYGVHACEGCKGFFRRSIQQNIQYKRCLKNENCSIVRINRNRCQQCRFKKCLSVGMSRDAVRFGRIPKREKQRMLAEMQSAMNLANNQLSSQCPLETSPTQHPTPGPMGPSPPPAPVPSPLVGFSQFPQQLTPPRSPSPEPTVEDVISQVARAHREIFTYAHDKLGSSPGNFNANHASGSPPATTPHRWENQGCPPAPNDNNTLAAQRHNEALNGLRQAPSSYPPTWPPGPAHHSCHQSNSNGHRLCPTHVYAAPEGKAPANSPRQGNSKNVLLACPMNMYPHGRSGRTVQEIWEDFSMSFTPAVREVVEFAKHIPGFRDLSQHDQVTLLKAGTFEVLMVRFASLFNVKDQTVMFLSRTTYSLQELGAMGMGDLLSAMFDFSEKLNSLALTEEELGLFTAVVLVSADRSGMENSASVEQLQETLLRALRALVLKNRPLETSRFTKLLLKLPDLRTLNNMHSEKLLSFRVDAQ | 8.8 | 0.7 | 0.74 | 2.2 | 0.5 | 0.50 | 1.21 | 47.9 | 1.2 | 79.3 | 1.5 | 1.52 | 46.3 | 8.3 | 8.25 |
